Reference: IntAct's records for PubMed 31142615

Target: marh2_human MARCHF2 (UniProt Q9P0N8)
Sequence (Q9P0N8 whole entry): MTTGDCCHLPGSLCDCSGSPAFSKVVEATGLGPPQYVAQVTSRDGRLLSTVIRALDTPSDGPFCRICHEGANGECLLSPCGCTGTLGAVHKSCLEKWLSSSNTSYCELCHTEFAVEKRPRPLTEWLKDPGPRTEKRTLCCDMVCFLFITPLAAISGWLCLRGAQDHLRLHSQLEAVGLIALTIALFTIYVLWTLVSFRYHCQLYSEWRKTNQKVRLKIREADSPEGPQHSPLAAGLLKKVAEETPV

Sequence of Endoplasmic reticulum-Golgi intermediate compartment protein 3 (Homo sapiens), Q9Y282 K6R;K8R (Q9Y282 whole entry K6R/K8R): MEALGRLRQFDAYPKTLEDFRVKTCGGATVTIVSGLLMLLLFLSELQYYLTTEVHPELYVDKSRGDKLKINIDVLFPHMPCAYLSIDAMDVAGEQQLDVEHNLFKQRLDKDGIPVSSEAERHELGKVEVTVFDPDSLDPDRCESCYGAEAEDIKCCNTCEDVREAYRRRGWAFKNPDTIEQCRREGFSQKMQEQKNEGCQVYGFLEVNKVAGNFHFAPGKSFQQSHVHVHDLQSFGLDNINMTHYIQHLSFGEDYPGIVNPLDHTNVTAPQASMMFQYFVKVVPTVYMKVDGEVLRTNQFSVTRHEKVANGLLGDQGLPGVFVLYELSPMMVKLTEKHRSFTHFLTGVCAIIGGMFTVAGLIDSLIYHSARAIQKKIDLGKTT

effect of a mutation on the interaction: with no effect
Substance: Endoplasmic reticulum-Golgi intermediate compartment protein 3 (Homo sapiens), Q9Y282 K6R;K8R
